Experiment [1] has as its target acetylcholine receptor. In words: SPR, AchR immobilized on CM5 chip, peptide 10 uM.
The target of experiment [2] is acetylcholine receptor. The experiment can be described thus: SPR, AchR immobilised, peptide 10 uM.

51 molecules from patent US20250011363A1, “OPTIMIZED SHORTENED PEPTIDE THAT BINDS TO ACETYLCHOLINE RECEPTOR, AND USE THEREOF” (SKINMED CO., LTD., priority 2021, published 2025) can be followed below.

The molecule RRDDFR [6mer-1-778] showed a Binding affinity (RU) in experiment [1] of 28 RU.
The same measure, in the same setting: next, RRHWDK [6mer-1-781]: 16 RU.
As for KKACMR [6mer-1-608], the Binding affinity (RU) in experiment [2] was 18 RU.
Molecule RKPDDK [6mer-1-791] gave a Binding affinity (RU) in experiment [1] of 13 RU.
On the same count and under the same terms, next, KKFTPK [6mer-1-784]: 33 RU; KRKCWR [6mer-1-780]: 24 RU.
With KKHHER [6mer-1-610], the Binding affinity (RU) in experiment [2] came to 27 RU.
On the same count and under the same terms, in the case of KKNCHK [6mer-1-611] it was 23 RU.
The same measure, in the same setting: in the case of KRIMKK [6mer-1-613] it was 14 RU.
In experiment [1], KKESIK [6mer-1-787] yielded a Binding affinity (RU) of 16 RU.
Regarding KRHNVR [6mer-1-617], in experiment [2], the Binding affinity (RU) was determined as 31 RU.
In experiment [1], KRKDKK [6mer-1-792] returned a Binding affinity (RU) of 30 RU.
On to KRPDNR [6mer-1-626], for which the Binding affinity (RU) in experiment [2] was 27 RU.
In experiment [2], KKDHFR [6mer-1-607] had a Binding affinity (RU) of 22 RU.
KKPNPK [6mer-1-790] yielded a Binding affinity (RU) in experiment [1] of 12 RU.
With KKTCER [6mer-1-785], the Binding affinity (RU) in experiment [1] was determined as 19 RU.
Consider KKNTIK [6mer-1-616], for which the Binding affinity (RU) in experiment [2] was found to be 31 RU.
In turn, KRMMPK [6mer-1-789] gave a Binding affinity (RU) in experiment [1] of 19 RU.
Still for that read-out and setting: in the case of RRHAFK [6mer-1-796] it was 28 RU.
Regarding KRPHFK [6mer-1-603], the Binding affinity (RU) in experiment [2] amounted to 13 RU.
Same read-out and setting: in the case of RKAEKR [6mer-1-602] it was 18 RU.
Consider KKCHMR [6mer-1-795], for which, in experiment [1], the Binding affinity (RU) was determined as 12 RU.
The same measure, in the same setting: next, RKYEPK [6mer-1-794]: 11 RU.
Consider KKFTKK [6mer-1-604], for which the Binding affinity (RU) in experiment [2] is 24 RU.
In turn, RRHNHR [6mer-1-777] yielded a Binding affinity (RU) in experiment [1] of 16 RU.
In experiment [2], KKIDKR [6mer-1-619] yielded a Binding affinity (RU) of 23 RU.
Still for that read-out and setting: next, RKNADR [6mer-1-605]: 20 RU; KKTSER [6mer-1-615]: 18 RU.
Consider RKIPKK [6mer-1-788], for which the Binding affinity (RU) in experiment [1] was found to be 22 RU.
In experiment [1], RRPDAR [6mer-1-779] showed a Binding affinity (RU) of 30 RU.
Take KRIMER [6mer-1-612]: in experiment [2], the Binding affinity (RU) came out at 17 RU.
Same read-out and setting: next, RRKTAK [6mer-1-620]: 11 RU.
Turning to KRIKEK [6mer-1-786], the Binding affinity (RU) in experiment [1] was 26 RU.
Consider RRTWWR [6mer-1-627], for which the Binding affinity (RU) in experiment [2] turned out to be 29 RU.
In experiment [2], KKEEER [6mer-1-614] gave a Binding affinity (RU) of 12 RU.
Molecule KKTPNR [6mer-1-793] had a Binding affinity (RU) in experiment [1] of 31 RU.
Consider KREDKK [6mer-1-625], for which the Binding affinity (RU) in experiment [2] was determined as 33 RU.
As for RRMAGK [6mer-1-621], the Binding affinity (RU) in experiment [2] worked out at 30 RU.
Still for that read-out and setting: in the case of RRENEK [6mer-1-628] it was 23 RU.
Same read-out and setting: next, KKPPAK [6mer-1-624]: 30 RU.
For RRDCFR [6mer-1-798], the Binding affinity (RU) in experiment [1] was determined as 18 RU.
Same read-out and setting: in the case of KKNEFK [6mer-1-783] it was 29 RU; in that of KKNAWK [6mer-1-782], 30 RU.
Consider RKNPVR [6mer-1-609], for which the Binding affinity (RU) in experiment [2] was found to be 24 RU.
Still for that read-out and setting: in the case of KKCPNR [6mer-1-622] it was 18 RU.
As to RRAWNK [6mer-1-797], the Binding affinity (RU) in experiment [1] is 22 RU.
On to RREWFR [6mer-1-606], for which, in experiment [2], the Binding affinity (RU) came to 15 RU.
In experiment [2], RRTDWR [6mer-1-623] displayed a Binding affinity (RU) of 21 RU.
Same read-out and setting: next, RKMDAK [6mer-1-629]: 11 RU; RKCHVK [6mer-1-618]: 19 RU; KKEWNK [6mer-1-601]: 27 RU.
